{
  "source": "patent US20070249061A1",
  "about": "(PROTEOGEN, published 2007)",
  "molecular_target": "T1, integrin αvβ3 (UniProt P06756 31-1048; P05106 27-788)",
  "T1 construct": "Heterodimer immobilized on ProteoChip",
  "T1 sequence (P06756 31-1048, chain 1 of 2)": "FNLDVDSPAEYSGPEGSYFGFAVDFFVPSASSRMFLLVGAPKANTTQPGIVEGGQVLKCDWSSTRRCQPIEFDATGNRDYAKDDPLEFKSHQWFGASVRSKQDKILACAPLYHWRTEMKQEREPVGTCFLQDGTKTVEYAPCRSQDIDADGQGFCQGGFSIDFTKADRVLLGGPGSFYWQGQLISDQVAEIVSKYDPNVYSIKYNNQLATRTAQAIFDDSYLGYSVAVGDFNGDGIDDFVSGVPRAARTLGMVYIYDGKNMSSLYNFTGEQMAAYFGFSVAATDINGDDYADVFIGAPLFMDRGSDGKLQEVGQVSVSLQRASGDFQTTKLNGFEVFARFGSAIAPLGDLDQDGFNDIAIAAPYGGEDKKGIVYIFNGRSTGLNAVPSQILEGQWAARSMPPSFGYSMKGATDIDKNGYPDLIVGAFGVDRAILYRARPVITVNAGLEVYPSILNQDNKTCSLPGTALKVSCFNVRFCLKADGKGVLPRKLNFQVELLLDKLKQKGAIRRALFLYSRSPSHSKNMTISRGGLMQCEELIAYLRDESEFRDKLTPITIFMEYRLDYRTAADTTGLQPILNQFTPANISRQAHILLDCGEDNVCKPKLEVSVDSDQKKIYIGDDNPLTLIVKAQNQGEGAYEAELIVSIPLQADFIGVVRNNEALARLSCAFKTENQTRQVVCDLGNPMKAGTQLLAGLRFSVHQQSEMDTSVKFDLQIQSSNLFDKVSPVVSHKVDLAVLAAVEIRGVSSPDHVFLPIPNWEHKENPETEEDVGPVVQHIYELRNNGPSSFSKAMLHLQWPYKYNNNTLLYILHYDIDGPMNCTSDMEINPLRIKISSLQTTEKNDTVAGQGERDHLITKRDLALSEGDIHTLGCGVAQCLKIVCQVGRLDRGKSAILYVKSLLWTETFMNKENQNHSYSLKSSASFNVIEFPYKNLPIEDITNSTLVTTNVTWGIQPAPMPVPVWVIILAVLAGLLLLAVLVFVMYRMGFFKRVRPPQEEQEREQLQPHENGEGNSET",
  "T1 sequence (P05106 27-788, chain 2 of 2)": "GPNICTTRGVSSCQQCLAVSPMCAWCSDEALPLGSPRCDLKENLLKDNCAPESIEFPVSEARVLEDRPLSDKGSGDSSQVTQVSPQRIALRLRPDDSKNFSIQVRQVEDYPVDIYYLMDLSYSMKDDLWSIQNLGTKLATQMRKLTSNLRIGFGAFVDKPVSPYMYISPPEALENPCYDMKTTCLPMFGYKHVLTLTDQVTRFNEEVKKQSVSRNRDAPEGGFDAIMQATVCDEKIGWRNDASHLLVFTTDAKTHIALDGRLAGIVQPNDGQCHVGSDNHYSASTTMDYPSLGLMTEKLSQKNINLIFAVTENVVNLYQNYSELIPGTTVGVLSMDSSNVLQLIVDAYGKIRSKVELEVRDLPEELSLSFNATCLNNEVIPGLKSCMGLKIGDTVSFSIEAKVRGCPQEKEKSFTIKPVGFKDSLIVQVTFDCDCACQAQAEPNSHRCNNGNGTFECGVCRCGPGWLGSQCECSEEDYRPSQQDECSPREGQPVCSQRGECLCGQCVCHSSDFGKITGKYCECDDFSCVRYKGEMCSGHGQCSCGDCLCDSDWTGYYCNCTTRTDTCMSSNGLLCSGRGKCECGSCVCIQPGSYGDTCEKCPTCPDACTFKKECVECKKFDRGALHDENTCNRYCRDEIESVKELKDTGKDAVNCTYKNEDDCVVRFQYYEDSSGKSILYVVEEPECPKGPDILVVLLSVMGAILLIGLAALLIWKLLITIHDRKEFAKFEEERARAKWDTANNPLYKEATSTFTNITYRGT",
  "assay": "competitive inhibition of integrin αvβ3-vitronectin interaction on protein chip",
  "note": "No end group written: not given here.",
  "data": [
    {"binder": "HGLVHK-NH2 (also called HGLVHK peptide; peptide number 7)", "note": "[HGLVHK-NH2]", "values": [
      {"measurement": "IC50", "value": 0.00243, "unit": "ng/mL"}
    ]},
    {"binder": "HSDVHK-NH2 (also called HSDVHK peptide; peptide number 11)", "note": "[HSDVHK-NH2]", "values": [
      {"measurement": "IC50", "value": 0.00174, "unit": "ng/mL"}
    ]},
    {"binder": "HSLVHK-NH2 (also called peptide number 8)", "note": "[HSLVHK-NH2]", "values": [
      {"measurement": "IC50", "value": 0.046, "unit": "ng/mL"}
    ]},
    {"binder": "HHLLHK-NH2 (also called HHLLHK peptide; peptide number 3)", "note": "[HHLLHK-NH2]", "values": [
      {"measurement": "IC50", "value": 0.0034, "unit": "ng/mL"}
    ]},
    {"binder": "HHLVHK-NH2 (also called peptide number 9)", "note": "[HHLVHK-NH2]", "values": [
      {"measurement": "IC50", "value": 0.313, "unit": "ng/mL"}
    ]},
    {"binder": "HGDLHK-NH2 (also called HGDLHK peptide; peptide number 4)", "note": "[HGDLHK-NH2]", "values": [
      {"measurement": "IC50", "value": 0.0307, "unit": "ng/mL"}
    ]},
    {"binder": "HGDVHK-NH2 (also called HGDVHK peptide; peptide number 10)", "note": "[HGDVHK-NH2]", "values": [
      {"measurement": "IC50", "value": 0.0447, "unit": "ng/mL"}
    ]}
  ]
}
